According to the nanobody polyreactivity screen of Harvey et al. (2022):

Test: yeast display, Sf9 membrane polyspecificity reagent, FACS + sequencing; frameworks hold sequencing errors
In short: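 Nanobodies came from a synthetic yeast display library in Saccharomyces cerevisiae BJ5465, induced with galactose for 36–48 hours and stained for 1 hour at 4 °C with 10% biotinylated, detergent-solubilized Sf9 membrane reagent. Cells were enriched on streptavidin microbeads and then FACS-sorted, with low and high (top ~1%) gates set on anti-HA fluorescence for expression and streptavidin fluorescence for reagent binding. Each polyreactivity label reflects the gate a clone came from. Genes were amplified by colony PCR, sequenced by MiSeq 2 × 250 and filtered by CDR length.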

Row | Sequence | polyreactivity (PSR sort gate)
1 | QVQLVESGGGLVQAGGSLRLSCAASGSIIPRNVMGWYRQAPGNERELVAAISRSGGSTSYADSVKGRFTISRDNAKNTVYLQMNSLKPEDTAVYYCKAPWQRYSAPWGQGYNYWGQGTQVTVSS | high polyreactivity
2 | QVQLVESGGGLVQAGGSLRLSCAASGSIIPSYSMGWYRQAPGKERDLVATIGRGGTTNYADSVKGRFTISLDNAKNTVYLQMNSLKPEDTAVYYCYAERIWRYKYGYDYWGQGSQVTVSS | high polyreactivity
3 | QVQLVESGGGLVQAGGSLRLSCAASGSIIPVYAMGWDRQAPGKVRQLVAAISSRGGRTYYADSVKGRFKISRDNAKNTVYLQMNSLKPEDTAVYYCASVYATYYRLPSQYDYWGQGTQVTVSS | low polyreactivity
4 | QVQLVESGGGLVQAGGSLRLSCAASGSIIRKYAMGCYRPAPGKERELVAAITSGGRTYYADSVKGRFTISRDNAKNTVYLQMNSLKPEDTAVYYCNARVRGYYEYNYWGQGTQVTVSS | high polyreactivity
5 | QVQLVESGGGLVQAGGSLRLSCAASGSIIRKYAMGWYRQAHGKERELVAAISRRTGNTYYADSVKGRFTISRDNAKNTVYLQMNSLKPEDTAVYYCAADYYSSSSWSEVDSWGQGTQVTVSS | high polyreactivity
6 | QVQLVESGGGLVQAGGSLRLSCAASGSIISFYAMGWYRQAPGKEREMVAVISDIGGSTYYADSVKGRFTISRDNAKNTDYLEMNSLKPEDTAVYYCAAGCHARTWYAYYYWGQGTQVTVSS | low polyreactivity
7 | QVQLVESGGGLVQAGGSLRLSCAASGSIISGNVMGWYRQAPGKEREFVATISWRGGNTYYADSVKGRFTISRDNAKNTVYLQMNSLKPEETAVYDCATRRLYSKSWYYYWGQGTQVTVSS | high polyreactivity
8 | QVQLVESGGGLVQAGGSLRLSCAASGSIISPNAMGWYRQAPGKERELVATISFSGGRTYYADSVKGLVTISRDNAKNTVYLQMNSLKPEDTAVYYCAKAYYYTDMDYWGQGTQVTVSS | low polyreactivity
9 | QVQLVESGGGLVQAGGSLRLSCAASGSIISRNAMGWYRQAPGKEREFVAAITRSGGSTSYADSVKGRFTISRDNAKSTVYLQMNSLKPEDTAVYYCAAAQKYRKEFDSWGQGTQVTVSS | high polyreactivity
10 | QVQLVESGGGLVQAGGSLRLSCAASGSIITDYAMGWYRQAPGKERELVATITDSGGSTYYADSVKGRFTISRDNAKNTVYLQMNSLKPEDTAVYYCAADRIHSVTRYDYDYWGQGTQVTVSS | low polyreactivity
11 | QVQLVESGGGLVQAGGSLRLSCAASGSIITGYAMGWYRQAPGKERELVAAITGNAGSTYYADSVKGRFTISRDNAKNTVYLQMNSLKPEDTAVYYCNARSWYVRGDYWGQGTQVTVSS | low polyreactivity
12 | QVQLVESGGGLVQAGGSLRLSCAASGSIITVNAMGWYRQAPGKEREFVAGITSIGGRTYYADSVMGRFTISRDNAKNTVYLQMYSLKPEDTAVYYCNKRSYRARYDYWGQGTQVTVSS | high polyreactivity
13 | QVQLVESGGGLVQAGGSLRLSCAASGSIITYYAMGGYRQAPGKERELVAGISARGGSTRYADSVKGRFTISRDNAKNTVYLQMNSLKPEDTAVYYCAADSRTNGYDYWGQGTQVTVSS | high polyreactivity
14 | QVQLVESGGGLVQAGGSLRLSCAASGSIIVRYAMGWYRQAPGKDRELVATITFRDTSTYYADSEKGRFTISRDNAKNTVYLQMNSLKPEDTAVYYCAAVRAVLWDIARYDYWGQGSQVTVSS | low polyreactivity
15 | QVQLVESGGGLVQAGGSLRLSCAASGSIIVRYAMGWYRQAPGKERELVATITFRDTSTYYADSVKGRFTISRDNAKNTVYLQMNRLIPEDTAVYYCAAVRADLWDIARYDYWGQGTQVTVSS | low polyreactivity
16 | QVQLVESGGGLVQAGGSLRLSCAASGSIIVWNAMGWYRQAPGKERELVASITSGASTYYADSVKGRFTISRDNAKNTVYLQINSLKPEDTAVYYCAADPWYVAYLLDGYGMDYWGQGTLVTVSS | low polyreactivity
17 | QVQLVESGGGLVQAGGSLRLSCAASGSIIWFYAMGWYRQAPGKEWELVAAISGSDTSTYYADSVKGRFTISRDNAKNTVYLQMNSLKPEDTSVYYCAADDGTTFGYGYWGQGTQVTVSS | low polyreactivity
18 | QVQLVESGGGLVQAGGSLRLSCAASGSIIYIYAMGWYRQAPGKERELVAAISSGDRTNYADSVKGRFTISRDNAKNTVYLQMNSLKPEDTAVYYCAAERKNKYDYWGQGTQVTVSS | high polyreactivity
19 | QVQLVESGGGLVQAGGSLRLSCAASGSIIYLYAMGWYRQAPGKEREFVAAITWRGASTYYADSVKGRFTISRYNAKNTVYLQMNSLKPEDTAVYYCAAKLPRVYGYGFDYWGQGTQVTVSS | low polyreactivity
20 | QVQLVESGGGLVQAGGSLRLSCAASGSIIYSYAMGWYRQAPGKERELVAAISTSAGTTYYADSVKGRFTISRDNAKNTVYLQMNSLKPEDTAVYYCATQVWSHKYWYYYWGQGTQVTVSS | high polyreactivity

Row | Sequence | polyreactivity (PSR sort gate)
21 | QVQLVESGGGLVQAGGSLRLSCAASGSIIYYYAMGWYRQAPGKERELVASITRGGSTYYADSVKGRFTISRDNAKNTVYLQMNSLKPEDTAVYYCNADLGAYVPYDYWGQGTQVTVSS | high polyreactivity
22 | QVQLVESGGGLVQAGGSLRLSCAASGSILAGYAMGWYRQAPGKERELVAAISGGGGSTYYADSVKGRFTISRDNAKNTVYLQMNSLKPEDTAVYYCAAQDTYYGLFSYWIPWSGYWGQGTQVTVSS | high polyreactivity
23 | QVQLVESGGGLVQAGGSLRLSCAASGSILARYAMGWYRPAPGKERELVAAISSRGGSTYYADSVKGRFTISRDNAKNTVYLEINSLKPEDTAVYSCAAYVYLQVEYDYWGHGTQVTVSS | low polyreactivity
24 | QVQLVESGGGLVQAGGSLRLSCAASGSILAYNAMGWYRQAPGKERELVAAISWTGRTYYADSVKGRFTISRDNAKNTVYLQMNSLKPEDTAVYYCNARGRQRSRGSQIYDYWGQGSQVTVSS | high polyreactivity
25 | QVQLVESGGGLVQAGGSLRLSCAASGSILDGYAMGWYIQAPGKARELVAAITTGGGSTYYADSVKGRFTISRDNAKNTVYLQMNSLKPEDTAVYYCAAYRKPGSWTWWVRGYGYWVQGTQVTVSS | low polyreactivity
26 | QVQLVESGGGLVQAGGSLRLSCAASGSILDRYVMGWYRQAPGNGRELVSAITWSGSRTYYADSVKGRFTISRDNAKNTVYLQMNSLKPEDTAVYYCAKVIRRSSTLGNHYYWGQGTQVTVSS | high polyreactivity
27 | QVQLVESGGGLVQAGGSLRLSCAASGSILEGNAMGWYRQAPGKERELVASISGDGSTNYADSVKGRFTISRDNAKNTVYLQMNSLKPEDTAVYYCAARYGRIHWKANWPEYGYWGQGTQVTVSS | low polyreactivity
28 | QVQLVESGGGLVQAGGSLRLSCAASGSILFLNAMGWYSQAPGKERELVASITDSGGGTYYADSVKGRFTISRDNAKNTVYLQMNSLKPEDTAVYYCNARSRRPDDYWGQGTQVTVSS | low polyreactivity
29 | QVQLVESGGGLVQAGGSLRLSCAASGSILFNNAMGWYRQAPGKEWELVAAMGANGGNTYYADSVKGRFTISCDNATNTVYLQMTSLKPEDTAVYYCSADKTLYGGGAWTRWFHYTYGYWGQGTQVTVSS | high polyreactivity
30 | QVQLVESGGGLVQAGGSLRLSCAASGSILFRYGMGWYRQAPGKERELVAAINSGGSTYADSVKGRFTISRDNAKNTVYLQMNSLKPEDTAVYYCAKVAWQAHGGPGEFDYWGQGTQVTVSS | low polyreactivity
31 | QVQLVESGGGLVQAGGSLRLSCAASGSILFYNAMGWYRQAPGKERELVAAISSGGSTYYADSVKGRFTISRDNAKNTVYLQMNSLKPEDTAVYNCAARRRYSSVYYYYTTRRGYWGQGTQVTVSS | high polyreactivity
32 | QVQLVESGGGLVQAGGSLRLSCAASGSILGGNAMGWYRQAPGKERELVAAITFSGGGTYYADSVKGRFTISRDNGKNTVYLQMNSLKPEDTALYNCAADKDGYTYEFDYWGQGTQVTVSS | low polyreactivity
33 | QVQLVESGGGLVQAGGSLRLSCAASGSILGGNAMGWYRQAPGKEWELVAAITFSGGGTYYADSVKGRFTSSRDNAKNTVYLQMNSLKPEDTAVYYCAADKDGYTYEFDYWGQGTQVTVSS | low polyreactivity
34 | QVQLVESGGGLVQAGGSLRLSCAASGSILGHYAMGWYRQAPGKERELVAAISWSGGSTYYADSVKGRFTISRDNAKNTVYLQMNSLKPEDTAVYYCNAYLSPKQPLSPPDPTFEGGYWGQGTQVTVSS | low polyreactivity
35 | QVQLVESGGGLVQAGGSLRLSCAASGSILGRYAMGWYRQAPGKERELVAAITSSGGRTYYADSVKGRFTISRDNAKNSVYLQMNSLKPEDTAVYYCAARYGRRLVWVPALLYDYWGQGTQVTVSS | high polyreactivity
36 | QVQLVESGGGLVQAGGSLRLSCAASGSILGTYAMGWYRQAPGKERDLVAAISSSGRTSYADSVKGRFTISRDNAKNTVYLQMNSLKPEDTAVYFCNKVTSYYVFYTPYYSWGQGTQVTVSS | low polyreactivity
37 | QVQLVESGGGLVQAGGSLRLSCAASGSILGTYAMGWYRQAPGKERELVAAISASGRTSYADSEKGRFTISRDNAKNTVYLQMNSLKPEDTAVYDCNASNYFVLINDPDAAPWLYDYWGHGTQVTVSS | low polyreactivity
38 | QVQLVESGGGLVQAGGSLRLSCAASGSILGYYAMGWYRQAPGKERELVAAISWSGGRTYYADSVKGRFTISRDNAKNTVYLQMNSLKPEDTAVYYCNARWRSGPRAYDYWGQGTQVTVSS | high polyreactivity
39 | QVQLVESGGGLVQAGGSLRLSCAASGSILGYYAMGWYRQAPGKERELVAAITASGGSTYYADSVKGRFTISRDNAKNTVYLQMNSLKPEDTAVYYCNADGGPGYPRAYDYWGQGTQVTVSS | low polyreactivity
40 | QVQLVESGGGLVQAGGSLRLSCAASGSILGYYAMGWYRQAPGKERELVAAITWRGGRTYYADSVKGRFTISRDNAMNTVYLQMNSLKPEDTAVYYCAKVPSGYKGYDYWGQGTQVTVSS | high polyreactivity
